In the RNAGym collection of RNA variant scans (doi:10.1093/molbev/msab373) one finds reverse-splicing fitness data, which are given here for 15 variants.

B1: Azoarcus group I ribozyme (parent)
chain: GUGCCUUGCGCCGGGAAACCACGCAAGGGAUGGUGUCAAAUUCGGCGAAACCUAAGCGCCCGCCCGGGCGUAUGGCAACGCCGAGCCAAGCUUCGGCGCCUGCGCCGAUGAAGGUGUAGAGACUAGACGGCACCCACCUAAGGCAAACGCUAUGGUGAAGGCAUAGUCCAGGGAGUGGCGAAAGUCACACAAACCGG

Variants of B1 are the subject of this data set. Put plainly: reverse-splicing fitness (ratio to wild type); higher = more active; in vitro selection; Mg2+ level not given. The gist of the method: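 An in vitro group I ribozyme library with randomized positions was T7-transcribed and gel-purified. In triplicate, 10 pmol RNA in EPPS pH 7.5 was reacted with 50 pmoles of a 30-nt RNA substrate for 1 h at 37 °C across several added MgCl2 levels (1–48 mM), then stopped with EDTA. Products were reverse transcribed from a substrate-complementary primer, PCR-amplified and sequenced (HiSeq 4000). Fitness is a variant's read proportion after selection over that before, normalised to wild type.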
As to GUGCCUUGCGCCGGGAAACCACGCAAGGGAUGGUGUCAAAUUCGGCGAAACCUAAGCGCCCGCCCGGGCGUAUGGCAACGCAGAGCCAAGCUUCGGCGCCUGCGCCGAUGAAGGUGUAGAGACUAGACGGCACCCACCUAAGGCUAACGAUAUGGUGAAGGCAUAGUCCAGGGAGUGGCGAAAGUCACACAAACCGG [C82A A145U C150A], the reverse-splicing fitness is 0.0549.

For the variant GUGCCUUGCGCCGGGAAACCACGCAAGGGAUGGUGUCAAAUUCGGCGAAACCUAAGCGCCCGCCCGGGCGUAUGGCAACGCAGAGCCAAGCUUCGGCGCCUGCGCCGAUGAAGGUGUAGAGACUAGACGGCACCCACCUAAGGCGAACGUUAUGGUGAAGGCAUAGUCAAGGGAGGGGCGAAAGUCACACAAACCGG [C82A A145G C150U C169A U176G], the reverse-splicing fitness came to 0.00665.

On to GUGCCUUGCGCCGGGAAACCACGCAAGGGAUGGUGUCAAAUUCGGCGAAACCUAAGCGCCCGCCCGGGCGUAUGGCAACGCAGAGCCAAGCUUCGGCGCCUGCGCCGAUGAAGGUGUAGAGACUAGACGGCACCCACCUAAGGCGAACGUUAUGGUGAAGGCAUAGUCGAGGGAGGGGCGAAAGUCACACAAACCGG [C82A A145G C150U C169G U176G], for which the reverse-splicing fitness worked out at 0.00547.

For the variant GUGCCUUGCGCCGGGAAACCACGCAAGGGAUGGUGUCAAAUUCGGCGAAACCUAAGCGCCCGCCCGGGCGUAUGGCAACGCAGAGCCAAGCUUCGGCGCCUGCGCCGAUGAAGGUGUAGAGACUAGACGGCACCCACCUAAGGCGAACGUUAUGGUGAAGGCAUAGUCGAGGGAGAGGCGAAAGUCACACAAACCGG [C82A A145G C150U C169G U176A], the reverse-splicing fitness came out at 0.0138.

Turning to GUGCCUUGCGCCGGGAAACCACGCAAGGGAUGGUGUCAAAUUCGGCGAAACCUAAGCGCCCGCCCGGGCGUAUGGCAACGCAGAGCCAAGCUUCGGCGCCUGCGCCGAUGAAGGUGUAGAGACUAGACGGCACCCACCUAAGGCGAACGUUAUGGUGAAGGCAUAGUCGAGGGAGCGGCGAAAGUCACACAAACCGG [C82A A145G C150U C169G U176C], the reverse-splicing fitness was found to be 0.02.

For GUGCCUUGCGCCGGGAAACCACGCAAGGGAUGGUGUCAAAUUCGGCGAAACCUAAGCGCCCGCCCGGGCGUAUGGCAACGCAGAGCCAAGCUUCGGCGCCUGCGCCGAUGAAGGUGUAGAGACUAGACGGCACCCACCUAAGGCGAACGCUAUGGUGAAGGCAUAGUCUAGGGAGGGGCGAAAGUCACACAAACCGG [C82A A145G C169U U176G], the reverse-splicing fitness was determined as 0.00459.

In the case of GUGCCUUGCGCCGGGAAACCACGCAAGGGAUGGUGUCAAAUUCGGCGAAACCUAAGCGCCCGCCCGGGCGUAUGGCAACGCAGAGCCAAGCUUCGGCGCCUGCGCCGAUGAAGGUGUAGAGACUAGACGGCACCCACCUAAGGCGAACGCUAUGGUGAAGGCAUAGUCUAGGGAGAGGCGAAAGUCACACAAACCGG [C82A A145G C169U U176A], the reverse-splicing fitness came to 0.0146.

With GUGCCUUGCGCCGGGAAACCACGCAAGGGAUGGUGUCAAAUUCGGCGAAACCUAAGCGCCCGCCCGGGCGUAUGGCAACGCAGAGCCAAGCUUCGGCGCCUGCGCCGAUGAAGGUGUAGAGACUAGACGGCACCCACCUAAGGCGAACGCUAUGGUGAAGGCAUAGUCUAGGGAGCGGCGAAAGUCACACAAACCGG [C82A A145G C169U U176C], the reverse-splicing fitness turned out to be 0.0143.

With GUGCCUUGCGCCGGGAAACCACGCAAGGGAUGGUGUCAAAUUCGGCGAAACCUAAGCGCCCGCCCGGGCGUAUGGCAACGCAGAGCCAAGCUUCGGCGCCUGCGCCGAUGAAGGUGUAGAGACUAGACGGCACCCACCUAAGGCUAACGCUAUGGUGAAGGCAUAGUCCAGGGAGUGGCGAAAGUCACACAAACCGG [C82A A145U], the reverse-splicing fitness was found to be 0.635.

In the case of GUGCCUUGCGCCGGGAAACCACGCAAGGGAUGGUGUCAAAUUCGGCGAAACCUAAGCGCCCGCCCGGGCGUAUGGCAACGCAGAGCCAAGCUUCGGCGCCUGCGCCGAUGAAGGUGUAGAGACUAGACGGCACCCACCUAAGGCGAACGUUAUGGUGAAGGCAUAGUCGAGGGAGUGGCGAAAGUCACACAAACCGG [C82A A145G C150U C169G], the reverse-splicing fitness was 0.0117.

GUGCCUUGCGCCGGGAAACCACGCAAGGGAUGGUGUCAAAUUCGGCGAAACCUAAGCGCCCGCCCGGGCGUAUGGCAACGCAGAGCCAAGCUUCGGCGCCUGCGCCGAUGAAGGUGUAGAGACUAGACGGCACCCACCUAAGGCGAACGUUAUGGUGAAGGCAUAGUCUAGGGAGUGGCGAAAGUCACACAAACCGG [C82A A145G C150U C169U]: the reverse-splicing fitness came to 0.0162.

On to GUGCCUUGCGCCGGGAAACCACGCAAGGGAUGGUGUCAAAUUCGGCGAAACCUAAGCGCCCGCCCGGGCGUAUGGCAACGCAGAGCCAAGCUUCGGCGCCUGCGCCGAUGAAGGUGUAGAGACUAGACGGCACCCACCUAAGGCGAACGUUAUGGUGAAGGCAUAGUCUAGGGAGAGGCGAAAGUCACACAAACCGG [C82A A145G C150U C169U U176A], for which the reverse-splicing fitness stood at 0.0129.

GUGCCUUGCGCCGGGAAACCACGCAAGGGAUGGUGUCAAAUUCGGCGAAACCUAAGCGCCCGCCCGGGCGUAUGGCAACGCAGAGCCAAGCUUCGGCGCCUGCGCCGAUGAAGGUGUAGAGACUAGACGGCACCCACCUAAGGCGAACGUUAUGGUGAAGGCAUAGUCUAGGGAGGGGCGAAAGUCACACAAACCGG [C82A A145G C150U C169U U176G]: the reverse-splicing fitness came out at 0.00555.

For GUGCCUUGCGCCGGGAAACCACGCAAGGGAUGGUGUCAAAUUCGGCGAAACCUAAGCGCCCGCCCGGGCGUAUGGCAACGCAGAGCCAAGCUUCGGCGCCUGCGCCGAUGAAGGUGUAGAGACUAGACGGCACCCACCUAAGGCGAACGUUAUGGUGAAGGCAUAGUCUAGGGAGCGGCGAAAGUCACACAAACCGG [C82A A145G C150U C169U U176C], the reverse-splicing fitness worked out at 0.0136.

For the variant GUGCCUUGCGCCGGGAAACCACGCAAGGGAUGGUGUCAAAUUCGGCGAAACCUAAGCGCCCGCCCGGGCGUAUGGCAACGCAGAGCCAAGCUUCGGCGCCUGCGCCGAUGAAGGUGUAGAGACUAGACGGCACCCACCUAAGGCUAACGAUAUGGUGAAGGCAUAGUCAAGGGAGUGGCGAAAGUCACACAAACCGG [C82A A145U C150A C169A], the reverse-splicing fitness stood at 0.00847.
